Laboratory results from patent US20240287186A1.

Target: CD3 (target of Table E-1) (UniProt P07766)
Test: Biacore (SPR; format not stated)

## Anti-CD3 Fab OKT3
  Kd: 9.62 nM
